Results: PMC3000793

Biological target: ASIC3-YFP (UniProt O35240)
Test: FRET or BRET

Sequence of UniProt O35240 (O35240 whole entry): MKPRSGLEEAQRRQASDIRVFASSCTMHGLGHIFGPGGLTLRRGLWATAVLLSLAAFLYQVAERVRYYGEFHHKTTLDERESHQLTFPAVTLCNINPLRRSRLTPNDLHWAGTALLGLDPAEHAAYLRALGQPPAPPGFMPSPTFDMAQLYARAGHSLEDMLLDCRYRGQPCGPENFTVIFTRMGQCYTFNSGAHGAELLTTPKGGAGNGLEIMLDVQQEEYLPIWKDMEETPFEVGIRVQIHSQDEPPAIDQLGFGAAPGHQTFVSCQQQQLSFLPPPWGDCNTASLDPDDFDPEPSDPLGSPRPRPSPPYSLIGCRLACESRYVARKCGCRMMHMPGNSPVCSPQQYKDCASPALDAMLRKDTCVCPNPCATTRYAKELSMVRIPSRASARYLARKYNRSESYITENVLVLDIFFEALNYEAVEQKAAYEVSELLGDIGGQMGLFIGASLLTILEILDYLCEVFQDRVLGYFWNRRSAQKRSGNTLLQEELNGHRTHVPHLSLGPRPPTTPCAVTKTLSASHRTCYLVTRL

## P2X5-CFP (from UniProt P51578 1-455) (receptor)
  FRET signal (donor dequenching): 20%
